# Source: US20230265179A1 (TWIST BIOSCIENCE, published 2023)
# T1: IL1RL2 over-expressed on Expi293 cells (UniProt Q9HB29 20-575, limits assumed)
# T1 construct: whole, on cells; Target of the flow cytometry assay; MFI ratio is over-expressing cells over parent cells
# T1 sequence (looked up): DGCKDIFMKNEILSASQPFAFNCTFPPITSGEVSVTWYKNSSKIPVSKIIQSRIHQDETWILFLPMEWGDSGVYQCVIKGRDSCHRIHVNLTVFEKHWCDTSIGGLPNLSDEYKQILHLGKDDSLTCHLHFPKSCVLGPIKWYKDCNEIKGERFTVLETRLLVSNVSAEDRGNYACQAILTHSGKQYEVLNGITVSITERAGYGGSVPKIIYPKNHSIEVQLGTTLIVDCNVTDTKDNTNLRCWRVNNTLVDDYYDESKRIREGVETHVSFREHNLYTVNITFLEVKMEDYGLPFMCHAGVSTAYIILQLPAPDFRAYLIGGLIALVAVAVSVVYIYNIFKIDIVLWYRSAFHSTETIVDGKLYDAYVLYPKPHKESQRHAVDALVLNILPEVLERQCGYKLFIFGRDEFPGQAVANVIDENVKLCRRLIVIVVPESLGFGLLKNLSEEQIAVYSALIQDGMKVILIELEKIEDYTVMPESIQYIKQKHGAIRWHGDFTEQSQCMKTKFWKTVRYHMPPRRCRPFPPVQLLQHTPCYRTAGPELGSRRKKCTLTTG
# Target: T1, IL1RL2 over-expressed on Expi293 cells
# Experiment: flow cytometry, over-expressing Expi293 vs parent cells, 100 nM antibody;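 note: ratio is mean fluorescence intensity on over-expressing Expi293 cells divided by that measured on parental Expi293 cells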
# Procedure: All incubations and washes were in buffer containing PBS+1% BSA. MFI Ratio is defined by the mean fluorescence intensity (MFI) of the cytokine over-expressing Expi293 cell over the Expi293 parent cell. […] EC50 was calculated in GraphPad Prism.
row,Binder,100 nM FACS (MFI Ratio)
1,"IL1RL2-38 (VHH, VHH-Fc based on IgG2 Fc) VHH: EVQLVESGGGLVQPGGSLRLSCAASGRSRYGMGWFRQAPGKEREFVAAINWNGASTYYADSVKGRFTISADNSKNTAYLQMNSLKPEDTAVYYCAVSQPLNYYTYYDARRYDWGQGTLVTVSS",7.41
2,"IL1RL2-28 (VHH, VHH-Fc based on IgG2 Fc) VHH: EVQLVESGGGLVQPGGSLRLSCAASGFTLNDYAMGWFRQAPGKEREWVSSINWSGSTYYADSVKGRFTISADNSKNTAYLQMNSLKPEDTAVYYCAKAYSSSWPYFDYWGQGTLVTVSS",13.6
3,"IL1RL2-170 (antibody, V domains shown, IgG2) VH: EVQLLESGGGLVQPGGSLRLSCAASGFTFPVYNMAWVRQAPGKGLEWVSSISGYGSTTYYADSVKGRFTISRDNSKNTLYLQMNSLRAEDTAVYYCAKSYGAFDYWGQGTLVTVSS VL: DIQMTQSPSSLSASVGDRVTITCSASQDINKYLNWYQQKPGKAPKLLIYHTSRLQDGVPSRFSGSGSGTDFTLTISSLQPEDFATYYCQQSYTTPWTFGQGTKVEIK",3.95
4,"IL1RL2-181 (antibody, V domains shown, IgG2) VH: EVQLLESGGGLVQPGGSLRLSCAASGFTFGQESMYWVRQAPGKGLEWVSGITRSGSTNYRDSVKGRFTISRDNSKNTLYLQMNSLRAEDTAVYYCAKQLGEEFDYWGQGTLVTVSS VL: DIQMTQSPSSLSASVGDRVTITCTGDKLAEKYVSWYQQKPGKAPKLLIYAKNNRPSGVPSRFSGSGSGTDFTLTISSLQPEDFATYYCQQWSSNPLTFGQGTKVEIK",1.02
5,IL1RL2-51 (VHH) VHH: EVQLVESGGGLVQPGGSLRLSCAASGFTFSPSWMGWFRQAPGKEREWVSSIDYSAEDTYYADSVKGRFTISADNSKNTAYLQMNSLKPEDTAVYYCAAFDGYSGSDWGQGTLVTVSS,9.68
6,"IL1RL2-45 (VHH, VHH-Fc based on IgG2 Fc) VHH: EVQLVESGGGLVQPGGSLRLSCAASGFDFSVSWMGWFRQAPGKEREFVGSIDWITTNIYYADSVKGRFTISADNSKNTAYLQMNSLKPEDTAVYYCAANIEAGTTKSQGWGQGTLVTVSS",6.82
7,"IL1RL2-33 (VHH, VHH-Fc based on IgG2 Fc) VHH: EVQLVESGGGLVQPGGSLRLSCAASGRSFNLYYMGWFRQAPGKEREFVASIFTDDGDSYYADSVKGRFTISADNSKNTAYLQMNSLKPEDTAVYYCAAGAGWAGTMTDYNWGQGTLVTVSS",15.2
8,"IL1RL2-176 (antibody, V domains shown, IgG2) VH: EVQLLESGGGLVQPGGSLRLSCAASGFTFSNSYISWVRQAPGKGLEWVSSIRGSSSSTYYADSVKGRFTISRDNSKNTLYLQMNSLRAEDTAVYYCARSYGGGFDYWGQGTLVTVSS VL: DIQMTQSPSSLSASVGDRVTITCSGDNLRGYYASWYQQKPGKAPKLLIYQNDKRPSGVPSRFSGSGSGTDFTLTISSLQPEDFATYYCFQGSHAPLTFGQGTKVEIK",0.72
9,"IL1RL2-50 (VHH, VHH-Fc based on IgG2 Fc) VHH: EVQLVESGGGLVQPGGSLRLSCAASGSIFSIDAMGWFRQAPGKERESVAIIKTDGSTYYADSVKGRFTISADNSKNTAYLQMNSLKPEDTAVYYCAHRLGYCSGGSCYWPNYFDYWGQGTLVTVSS",151
10,"IL1RL2-156 (antibody, V domains shown, IgG2) VH: EVQLLESGGGLVQPGGSLRLSCAASGFTFSSYWNHWVRQAPGKGLEWVSTIGPSGTSTYYADSVKGRFTISRDNSKNTLYLQMNSLRAEDTAVYYCAKSTPNIPLAYWGQGTLVTVSS VL: DIQMTQSPSSLSASVGDRVTITCRASQSIRRYLNWYQQKPGKAPKLLIYDASSSQSGVPSRFSGSGSGTDFTLTISSLQPEDFATYYCQQSTILPLTFGQGTKVEIK",0.69
11,"IL1RL2-185 (antibody, V domains shown, IgG2) VH: EVQLLESGGGLVQPGGSLRLSCAASGFTFDKYLMSWVRQAPGKGLEWVSAISGRGDNTYYADSVKGRFTISRDNSKNTLYLQMNSLRAEDTAVYYCARGGDTYFDYFDYWGQGTLVTVSS VL: DIQMTQSPSSLSASVGDRVTITCRASQSIRRFLNWYQQKPGKAPKLLIYQASSLQSGVPSRFSGSGSGTDFTLTISSLQPEDFATYYCQQSHSSPLTFGQGTKVEIK",205
12,"IL1RL2-158 (antibody, V domains shown, IgG2) VH: EVQLLESGGGLVQPGGSLRLSCAASGFTFSSYFMSWVRQAPGKGLEWVSEISPSGSETYYADSVKGRFTISRDNSKNTLYLQMNSLRAEDTAVYYCARAYSSGWSLPFDYWGQGTLVTVSS VL: DIQMTQSPSSLSASVGDRVTITCRASQGVRTSLAWYQQKPGKAPKLLIYATSTLQSGVPSRFSGSGSGTDFTLTISSLQPEDFATYYCAQGLRKPKTFGQGTKVEIK",14.8
13,"IL1RL2-46 (VHH, VHH-Fc based on IgG2 Fc) VHH: EVQLVESGGGLVQPGGSLRLSCAASGFTLGDYVMGWFRQAPGKEREFVATIRWGTTDTYYADSVKGRFTISADNSKNTAYLQMNSLKPEDTAVYYCQSWYYDILTGYSDYYYMDVWGQGTLVTVSS",15.6
14,"IL1RL2-167 (antibody, V domains shown, IgG2) VH: EVQLLESGGGLVQPGGSLRLSCAASGFTFSNYGVSWVRQAPGKGLEWVSGITRSGSTNYRDSVKGRFTISRDNSKNTLYLQMNSLRAEDTAVYYCAKGRRIFDYWGQGTLVTVSS VL: DIQMTQSPSSLSASVGDRVTITCSGDKLGHTYTSWYQQKPGKAPKLLIYGKKNRPSGVPSRFSGSGSGTDFTLTISSLQPEDFATYYCQQSYSTPGITFGQGTKVEIK",3.08
15,"IL1RL2-53 (VHH, VHH-Fc based on IgG2 Fc) VHH: EVQLVESGGGLVQPGGSLRLSCAASGSTFSPNVMGWFRQAPGKEREFVAAITWSGSSTTEYADSVKGRFTISADNSKNTAYLQMNSLKPEDTAVYYCAAANEYWVYVNPNRYTWGQGTLVTVSS",4.14
16,"IL1RL2-283 (antibody, V domains shown, IgG2) VH: EVQLLESGGGLVQPGGSLRLSCAASGFAFRSYAMSWVRQAPGKGLEWVSAITGSGTSTYYADSVKGRFTISRDNSKNTLYLQMNSLRAEDTAVYYCARDILWNYRVADYWGQGTLVTVSS VL: DIQMTQSPSSLSASVGDRVTITCRASLSISRYLNWYQQKPGKAPKLLIYTASSLHSGVPSRFSGSGSGTDFTLTISSLQPEDFATYYCQQSYRTPPWTFGGGTKVEIK",3.98
17,"IL1RL2-290 (antibody, V domains shown, IgG2) VH: EVQLLESGGGLVQPGGSLRLSCAASGFAFRSYAMSWVRQAPGKGLEWVSAITGSGTSTYYADSVKGRFTISRDNSKNTLYLQMNSLRAEDTAVYYCARDILWNYHVADYWGQGTLVTVSS VL: DIQMTQSPSSLSASVGDRVTITCRASLSISRYLNWYQQKPGKAPKLLIYTASSLHSGVPSRFSGSGSGTDFTLTISSLQPEDFATYYCQQSYRTPPWTFGGGTKVEIK",8.4
18,"IL1RL2-178 (antibody, V domains shown, IgG2) VH: EVQLLESEGGLVQPGGSLRLSCAASGFTFSGYDMQWVRQAPGKGLEWVSSISSTGFKTYYADSVKGRFTISRDNSKNTLYLQMNSLRAEDTAVYYCAKAGPPFAGSRGNSFDYWGQGTLVTVSS VL: DIQMTQSPSSLSASVGDRVTITCSGDNLRGYYASWYQQKPGKAPKLLIYGTSDLQSGVPSRFSGSGSGTDFTLTISSLQPEDFATYYCYSRDRSGNHLGMFGQGTKVEIK",37
19,"IL1RL2-162 (antibody, V domains shown, IgG2) VH: EVQLLESGGGLVQPGGSLRLSCAASGFTFNHYGMGWVRQAPGKGLEWVSSIGANGAPTYYADSVKGRFTISRDNSKNTLYLQMNSLRAEDTAVYYCAKSYLSGTFDYWGQGTLVTVSS VL: DIQMTQSPSSLSASVGDRVTITCQGGSPRSYYASWYQQKPGKAPKLLIYHTSRLQDGVPSRFSGSGSGTDFTLTISSLQPEDFATYYCQSYDKSNVVFGQGTKVEIK",4.26
20,"IL1RL2-40 (VHH, VHH-Fc based on IgG2 Fc) VHH: EVQLVESGGGLVQPGGSLRLSCAASGFTFSTYTMGWFRQAPGKEREFVAGIAWNGASGTLTSYADSVKGRFTISADNSKNTAYLQMNSLKPEDTAVYYCASAGRWGQGTLVTVSS",31
21,"IL1RL2-47 (VHH, VHH-Fc based on IgG2 Fc) VHH: EVQLVESGGGLVQPGGSLRLSCAASGGTFSNYAMGWFRQAPGKEREFVAAIGGVTDYADSVKGRFTISADNSKNTAYLQMNSLKPEDTAVYYCAAFAYEEGVYRWDWGQGTLVTVSS",13.2
22,"IL1RL2-184 (antibody, V domains shown, IgG2) VH: EVQLLESGGGLVQPGGSLRLSCAASGFTFSDYDMSWVRQAPGKGLEWVSSISPSGGWTEYADSVKGRFTISRDNSKNTLYLQMNSLRAEDTAVYYCARHDYSNYPYFDYWGQGTLVTVSS VL: DIQMTQSPSSLSASVGDRVTITCRASQTIGDYLNWYQQKPGKAPKLLIYTASNLQNGVPSRFSGSGSGTDFTLTISSLQPEDFATYYCQQGFSNPWTFGQGTKVEIK",3.19
23,"IL1RL2-173 (antibody, V domains shown, IgG2) VH: EVQLLESGGGLVQPGGSLRLSCAASGFTFSEYGMWWVRQAPGKGLEWVSEISPSGGYTYYADSVKGRFTISRDNSKNTLYLQMNSLRAEDTAVYYCAEQDVKGSSSFDYWGQGTLVTVSS VL: DIQMTQSPSSLSASVGDRVTITCRPNQNIATYINWYQQKPGKAPKLLIYQMSHLASGVPSRFSGSGSGTDFTLTISSLQPEDFATYYCQQSYSTPSFGQGTKVEIK",11.2
24,"IL1RL2-52 (VHH, VHH-Fc based on IgG2 Fc) VHH: EVQLVESGGGLVQPGGSLRLSCAASGRTSTYDMGWFRQAPGKEREFVGAISWSGGLTSYADSVKGRFTISADNSKNTAYLQMNSLKPEDTAVYYCADVNGDWGQGTLVTVSS",6.88
